In PMC314469, “Protein Interaction Networks by Proteome Peptide Scanning” (PLoS Biology, 2004):

What was measured:
Assay in all cases: SPOT array
[1] = target: T1, Rvs167 SH3 (RV167_YEAST), P39743
T1 chain: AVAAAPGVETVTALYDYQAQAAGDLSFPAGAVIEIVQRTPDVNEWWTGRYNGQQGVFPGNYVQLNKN

[2] = target: T2, Boi2 SH3 (BOI2_YEAST), P39969
T2 chain: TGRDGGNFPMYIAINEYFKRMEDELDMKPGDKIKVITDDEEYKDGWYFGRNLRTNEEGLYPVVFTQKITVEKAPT

[3] = target: T3, Yhr016c SH3 (YSC84_YEAST), P32793
T3 chain: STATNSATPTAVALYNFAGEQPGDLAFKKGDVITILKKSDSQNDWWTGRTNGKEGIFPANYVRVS

[4] = target: T4, Boi1 SH3 (BOI1_YEAST), P38041
T4 chain: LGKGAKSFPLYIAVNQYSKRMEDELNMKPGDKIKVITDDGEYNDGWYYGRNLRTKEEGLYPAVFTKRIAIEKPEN

[5] = target: T5, Myo5 SH3 (MYO5_YEAST), Q04439
T5 chain: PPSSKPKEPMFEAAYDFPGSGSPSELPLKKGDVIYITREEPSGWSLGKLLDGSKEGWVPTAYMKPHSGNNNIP

[6] = target: Sho1 SH3 (SHO1_YEAST), P40073
Sho1 SH3 (SHO1_YEAST), P40073, sequence (P40073 295-366): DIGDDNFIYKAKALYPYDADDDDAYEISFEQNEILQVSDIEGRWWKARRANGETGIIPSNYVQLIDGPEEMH

[7] = target: T6, Yfr024 SH3 (LSB3_YEAST), P43603
T6 chain: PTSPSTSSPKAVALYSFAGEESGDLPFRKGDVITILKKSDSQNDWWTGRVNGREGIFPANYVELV

B1: YER131W 91-104 (peptide)
chain: DRKNRAPPQRPRFN
normalised SPOT signal, Boehringer light units (BLU); mean over the file's lines of this peptide [1]: 332 | normalised SPOT signal, Boehringer light units (BLU); mean over the file's lines of this peptide [2]: 24.1 | normalised SPOT signal, Boehringer light units (BLU); mean over the file's lines of this peptide [3]: 162 | normalised SPOT signal, Boehringer light units (BLU); mean over the file's lines of this peptide [4]: 4240 | normalised SPOT signal, Boehringer light units (BLU); mean over the file's lines of this peptide [5]: 2430 | normalised SPOT signal, Boehringer light units (BLU); mean over the file's lines of this peptide [6]: 134 | normalised SPOT signal, Boehringer light units (BLU); mean over the file's lines of this peptide [7]: 3740

B2: YDL229W 462-475 (peptide)
chain: EFDLKNIPMMPAGE
normalised SPOT signal, Boehringer light units (BLU); mean over the file's lines of this peptide [1]: 74.1 | normalised SPOT signal, Boehringer light units (BLU); mean over the file's lines of this peptide [2]: 9.1 | normalised SPOT signal, Boehringer light units (BLU); mean over the file's lines of this peptide [3]: 32.3 | normalised SPOT signal, Boehringer light units (BLU); mean over the file's lines of this peptide [4]: 18.6 | normalised SPOT signal, Boehringer light units (BLU); mean over the file's lines of this peptide [5]: 106 | normalised SPOT signal, Boehringer light units (BLU); mean over the file's lines of this peptide [6]: 37.1 | normalised SPOT signal, Boehringer light units (BLU); mean over the file's lines of this peptide [7]: 112

B3: YMR072W 109-122 (peptide)
chain: EFDEKLPPKKPAGP
normalised SPOT signal, Boehringer light units (BLU); mean over the file's lines of this peptide [1]: 32.7 | normalised SPOT signal, Boehringer light units (BLU); mean over the file's lines of this peptide [2]: 2 | normalised SPOT signal, Boehringer light units (BLU); mean over the file's lines of this peptide [3]: 16.2 | normalised SPOT signal, Boehringer light units (BLU); mean over the file's lines of this peptide [4]: 40.4 | normalised SPOT signal, Boehringer light units (BLU); mean over the file's lines of this peptide [5]: 87.3 | normalised SPOT signal, Boehringer light units (BLU); mean over the file's lines of this peptide [6]: 38.9 | normalised SPOT signal, Boehringer light units (BLU); mean over the file's lines of this peptide [7]: 72.6

B4: YMR032W 380-393 (peptide)
chain: DSVLRQKPDKPRPI
normalised SPOT signal, Boehringer light units (BLU); mean over the file's lines of this peptide [1]: 43.8 | normalised SPOT signal, Boehringer light units (BLU); mean over the file's lines of this peptide [2]: 10.2 | normalised SPOT signal, Boehringer light units (BLU); mean over the file's lines of this peptide [3]: 9.2 | normalised SPOT signal, Boehringer light units (BLU); mean over the file's lines of this peptide [4]: 1240 | normalised SPOT signal, Boehringer light units (BLU); mean over the file's lines of this peptide [5]: 135 | normalised SPOT signal, Boehringer light units (BLU); mean over the file's lines of this peptide [6]: 26.5 | normalised SPOT signal, Boehringer light units (BLU); mean over the file's lines of this peptide [7]: 114

B5: YML034W 511-524 (peptide)
chain: DYRPKSIPSPPNGI
normalised SPOT signal, Boehringer light units (BLU); mean over the file's lines of this peptide [1]: 19.7 | normalised SPOT signal, Boehringer light units (BLU); mean over the file's lines of this peptide [2]: 6 | normalised SPOT signal, Boehringer light units (BLU); mean over the file's lines of this peptide [3]: 36.2 | normalised SPOT signal, Boehringer light units (BLU); mean over the file's lines of this peptide [4]: 75.6 | normalised SPOT signal, Boehringer light units (BLU); mean over the file's lines of this peptide [5]: 154 | normalised SPOT signal, Boehringer light units (BLU); mean over the file's lines of this peptide [6]: 23.7 | normalised SPOT signal, Boehringer light units (BLU); mean over the file's lines of this peptide [7]: 38.5

B6: YDR164C 226-239 (peptide)
chain: DTYARNNPDFPPQN
normalised SPOT signal, Boehringer light units (BLU); mean over the file's lines of this peptide [1]: 46.3 | normalised SPOT signal, Boehringer light units (BLU); mean over the file's lines of this peptide [2]: 31.6 | normalised SPOT signal, Boehringer light units (BLU); mean over the file's lines of this peptide [3]: 39.1 | normalised SPOT signal, Boehringer light units (BLU); mean over the file's lines of this peptide [4]: 118 | normalised SPOT signal, Boehringer light units (BLU); mean over the file's lines of this peptide [5]: 138 | normalised SPOT signal, Boehringer light units (BLU); mean over the file's lines of this peptide [6]: 4.9 | normalised SPOT signal, Boehringer light units (BLU); mean over the file's lines of this peptide [7]: 17.2

B7: YLL021W 188-201 (peptide)
chain: EEQVKEKPNEPEGK
normalised SPOT signal, Boehringer light units (BLU); mean over the file's lines of this peptide [1]: 22.8 | normalised SPOT signal, Boehringer light units (BLU); mean over the file's lines of this peptide [2]: 28.7 | normalised SPOT signal, Boehringer light units (BLU); mean over the file's lines of this peptide [3]: 23.2 | normalised SPOT signal, Boehringer light units (BLU); mean over the file's lines of this peptide [4]: 25.7 | normalised SPOT signal, Boehringer light units (BLU); mean over the file's lines of this peptide [5]: 134 | normalised SPOT signal, Boehringer light units (BLU); mean over the file's lines of this peptide [6]: 30.7 | normalised SPOT signal, Boehringer light units (BLU); mean over the file's lines of this peptide [7]: 0

B8: YOL093W 10-23 (peptide)
chain: EEKVKRTPPLPPVP
normalised SPOT signal, Boehringer light units (BLU); mean over the file's lines of this peptide [1]: 125 | normalised SPOT signal, Boehringer light units (BLU); mean over the file's lines of this peptide [2]: 17.7 | normalised SPOT signal, Boehringer light units (BLU); mean over the file's lines of this peptide [3]: 45.9 | normalised SPOT signal, Boehringer light units (BLU); mean over the file's lines of this peptide [4]: 108 | normalised SPOT signal, Boehringer light units (BLU); mean over the file's lines of this peptide [5]: 587 | normalised SPOT signal, Boehringer light units (BLU); mean over the file's lines of this peptide [6]: 48.2 | normalised SPOT signal, Boehringer light units (BLU); mean over the file's lines of this peptide [7]: 99

B9: YDR219C 208-221 (peptide)
chain: EDLVKKPPFIPSPT
normalised SPOT signal, Boehringer light units (BLU); mean over the file's lines of this peptide [1]: 13.6 | normalised SPOT signal, Boehringer light units (BLU); mean over the file's lines of this peptide [2]: 17.3 | normalised SPOT signal, Boehringer light units (BLU); mean over the file's lines of this peptide [3]: 2.1 | normalised SPOT signal, Boehringer light units (BLU); mean over the file's lines of this peptide [4]: 40.9 | normalised SPOT signal, Boehringer light units (BLU); mean over the file's lines of this peptide [5]: 756 | normalised SPOT signal, Boehringer light units (BLU); mean over the file's lines of this peptide [6]: 17.6 | normalised SPOT signal, Boehringer light units (BLU); mean over the file's lines of this peptide [7]: 0

B10: YOL027C 550-563 (peptide)
chain: EEEAKSVPPIPADQ
normalised SPOT signal, Boehringer light units (BLU); mean over the file's lines of this peptide [1]: 42.8 | normalised SPOT signal, Boehringer light units (BLU); mean over the file's lines of this peptide [2]: 4.5 | normalised SPOT signal, Boehringer light units (BLU); mean over the file's lines of this peptide [3]: 56.7 | normalised SPOT signal, Boehringer light units (BLU); mean over the file's lines of this peptide [4]: 114 | normalised SPOT signal, Boehringer light units (BLU); mean over the file's lines of this peptide [5]: 29.4 | normalised SPOT signal, Boehringer light units (BLU); mean over the file's lines of this peptide [6]: 10.6 | normalised SPOT signal, Boehringer light units (BLU); mean over the file's lines of this peptide [7]: 0

B11: YNL165W 293-306 (peptide)
chain: DSYSRSRPTRPLGY
normalised SPOT signal, Boehringer light units (BLU); mean over the file's lines of this peptide [1]: 354 | normalised SPOT signal, Boehringer light units (BLU); mean over the file's lines of this peptide [2]: 37.1 | normalised SPOT signal, Boehringer light units (BLU); mean over the file's lines of this peptide [3]: 177 | normalised SPOT signal, Boehringer light units (BLU); mean over the file's lines of this peptide [4]: 13600 | normalised SPOT signal, Boehringer light units (BLU); mean over the file's lines of this peptide [5]: 261 | normalised SPOT signal, Boehringer light units (BLU); mean over the file's lines of this peptide [6]: 52.1 | normalised SPOT signal, Boehringer light units (BLU); mean over the file's lines of this peptide [7]: 2260

B12: YLR247C 271-284 (peptide)
chain: DRLSKIKPFLPQSI
normalised SPOT signal, Boehringer light units (BLU); mean over the file's lines of this peptide [1]: 154 | normalised SPOT signal, Boehringer light units (BLU); mean over the file's lines of this peptide [2]: 16.3 | normalised SPOT signal, Boehringer light units (BLU); mean over the file's lines of this peptide [3]: 37.2 | normalised SPOT signal, Boehringer light units (BLU); mean over the file's lines of this peptide [4]: 804 | normalised SPOT signal, Boehringer light units (BLU); mean over the file's lines of this peptide [5]: 226 | normalised SPOT signal, Boehringer light units (BLU); mean over the file's lines of this peptide [6]: 237 | normalised SPOT signal, Boehringer light units (BLU); mean over the file's lines of this peptide [7]: 136

B13: YJR090C 138-151 (peptide)
chain: DQLNRLLPNLPEEE
normalised SPOT signal, Boehringer light units (BLU); mean over the file's lines of this peptide [1]: 682 | normalised SPOT signal, Boehringer light units (BLU); mean over the file's lines of this peptide [2]: 18.1 | normalised SPOT signal, Boehringer light units (BLU); mean over the file's lines of this peptide [3]: 23200 | normalised SPOT signal, Boehringer light units (BLU); mean over the file's lines of this peptide [4]: 106 | normalised SPOT signal, Boehringer light units (BLU); mean over the file's lines of this peptide [5]: 47.5 | normalised SPOT signal, Boehringer light units (BLU); mean over the file's lines of this peptide [6]: 12000 | normalised SPOT signal, Boehringer light units (BLU); mean over the file's lines of this peptide [7]: 12300

B14: YGR234W 292-305 (peptide)
chain: EEQVKSNPNRPIYW
normalised SPOT signal, Boehringer light units (BLU); mean over the file's lines of this peptide [1]: 13.3 | normalised SPOT signal, Boehringer light units (BLU); mean over the file's lines of this peptide [2]: 23.1 | normalised SPOT signal, Boehringer light units (BLU); mean over the file's lines of this peptide [3]: 30.2 | normalised SPOT signal, Boehringer light units (BLU); mean over the file's lines of this peptide [4]: 149 | normalised SPOT signal, Boehringer light units (BLU); mean over the file's lines of this peptide [5]: 110 | normalised SPOT signal, Boehringer light units (BLU); mean over the file's lines of this peptide [6]: 24.8 | normalised SPOT signal, Boehringer light units (BLU); mean over the file's lines of this peptide [7]: 140

B15: YDL195W 1179-1192 (peptide)
chain: EELARVTPLTPKEY
normalised SPOT signal, Boehringer light units (BLU); mean over the file's lines of this peptide [1]: 75.6 | normalised SPOT signal, Boehringer light units (BLU); mean over the file's lines of this peptide [2]: 41.9 | normalised SPOT signal, Boehringer light units (BLU); mean over the file's lines of this peptide [3]: 11.8 | normalised SPOT signal, Boehringer light units (BLU); mean over the file's lines of this peptide [4]: 65.7 | normalised SPOT signal, Boehringer light units (BLU); mean over the file's lines of this peptide [5]: 182 | normalised SPOT signal, Boehringer light units (BLU); mean over the file's lines of this peptide [6]: 54.5 | normalised SPOT signal, Boehringer light units (BLU); mean over the file's lines of this peptide [7]: 25.2

B16: YPR008W 508-521 (peptide)
chain: DVNHRYPPMAPTTV
normalised SPOT signal, Boehringer light units (BLU); mean over the file's lines of this peptide [1]: 52.3 | normalised SPOT signal, Boehringer light units (BLU); mean over the file's lines of this peptide [2]: 34 | normalised SPOT signal, Boehringer light units (BLU); mean over the file's lines of this peptide [3]: 15.7 | normalised SPOT signal, Boehringer light units (BLU); mean over the file's lines of this peptide [4]: 57.4 | normalised SPOT signal, Boehringer light units (BLU); mean over the file's lines of this peptide [5]: 176 | normalised SPOT signal, Boehringer light units (BLU); mean over the file's lines of this peptide [6]: 39.1 | normalised SPOT signal, Boehringer light units (BLU); mean over the file's lines of this peptide [7]: 21.3
